Five molecules from publication PMC2606918 (Molecular pharmacology, 2008) can be followed below.

The target of assay [1] is D2-A4 mutant receptor (Rattus norvegicus, UniProt P61169, I212A/I214A/V215A/Y213A). Particulars: PTX 50 ng/ml overnight prior to agonist treatment.
Assay [2] deals with wild type D2 receptor (Rattus norvegicus, UniProt P61169). Particulars: PTX 50 ng/ml overnight prior to agonist treatment.
For assay [3], the target named is T1, GST-D3-IC3 (third intracellular loop of the rat dopamine D3 receptor) (Rattus norvegicus, UniProt P19020).
T1 sequence (P19020 210-372): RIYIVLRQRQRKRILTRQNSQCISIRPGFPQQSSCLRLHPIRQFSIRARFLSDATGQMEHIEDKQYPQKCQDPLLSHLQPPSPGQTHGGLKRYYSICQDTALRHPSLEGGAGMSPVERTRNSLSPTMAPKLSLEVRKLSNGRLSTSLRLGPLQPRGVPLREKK
Nature of the assay: GST pull-down binding of purified arrestin to GST-D3-IC3.

Assay [4] addresses T2, GST-D2-IC3 (third intracellular loop of the rat dopamine D2L receptor) (Rattus norvegicus, UniProt P61169).
T2 sequence (P61169 211-371): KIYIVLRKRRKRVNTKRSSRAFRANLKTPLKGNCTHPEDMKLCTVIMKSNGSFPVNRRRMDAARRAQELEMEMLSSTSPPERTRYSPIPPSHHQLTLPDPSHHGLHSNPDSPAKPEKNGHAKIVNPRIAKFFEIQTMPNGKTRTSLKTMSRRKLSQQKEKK
Nature of the assay: GST pull-down binding of purified arrestin to GST-D2-IC3.

In assay [5] the target is T3, D2-IC3ΔNT10 (Rattus norvegicus, UniProt P61169).
T3 sequence (P61169 221-371 limits assumed): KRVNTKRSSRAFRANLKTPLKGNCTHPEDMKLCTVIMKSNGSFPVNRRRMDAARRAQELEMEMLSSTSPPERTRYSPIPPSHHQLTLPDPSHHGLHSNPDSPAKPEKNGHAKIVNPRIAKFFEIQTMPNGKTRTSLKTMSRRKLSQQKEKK
Nature of the assay: GST pull-down binding of arrestin3 to D2-IC3ΔNT10. Particulars: versus D2-IC3; 400 ng fusion protein, 100 ng arrestin3.

Assay [6] addresses T4, D2-IC3ΔNT5 (Rattus norvegicus, UniProt P61169).
T4 sequence (P61169 216-371 limits assumed): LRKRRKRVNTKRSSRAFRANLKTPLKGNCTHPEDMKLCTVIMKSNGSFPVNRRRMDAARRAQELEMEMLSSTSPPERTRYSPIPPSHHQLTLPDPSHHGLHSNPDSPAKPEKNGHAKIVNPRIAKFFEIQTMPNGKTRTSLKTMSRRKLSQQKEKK
Nature of the assay: GST pull-down binding of arrestin3 to D2-IC3ΔNT5. Particulars: versus D2-IC3; 400 ng fusion protein, 100 ng arrestin3.

The target of assay [7] is purified bovine arrestin3 (bovine, UniProt P32120 1-420). The assay can be described thus: pull-down.
Where [8] appears, read: amount of arrestin3 bound to 300 ng of GST-IC3.
Where [9] appears, read: saturation analysis, 300 ng GST-IC3, 30 min room temperature.
Setting [10] is: rate of association, data not shown.

Chain of purified bovine arrestin3 (P32120 whole entry): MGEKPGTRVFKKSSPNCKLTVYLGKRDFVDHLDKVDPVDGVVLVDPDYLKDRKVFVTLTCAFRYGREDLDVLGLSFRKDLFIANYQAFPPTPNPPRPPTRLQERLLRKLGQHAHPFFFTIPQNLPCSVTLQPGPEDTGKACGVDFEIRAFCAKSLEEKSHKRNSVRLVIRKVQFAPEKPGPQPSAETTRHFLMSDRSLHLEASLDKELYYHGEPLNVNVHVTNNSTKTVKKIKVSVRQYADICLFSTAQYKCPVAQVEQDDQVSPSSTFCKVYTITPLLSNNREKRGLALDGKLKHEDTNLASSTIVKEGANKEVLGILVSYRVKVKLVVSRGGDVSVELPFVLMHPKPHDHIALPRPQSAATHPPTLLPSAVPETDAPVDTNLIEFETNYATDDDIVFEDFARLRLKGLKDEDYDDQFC
Chain of wild type D2 receptor (P61169 whole entry): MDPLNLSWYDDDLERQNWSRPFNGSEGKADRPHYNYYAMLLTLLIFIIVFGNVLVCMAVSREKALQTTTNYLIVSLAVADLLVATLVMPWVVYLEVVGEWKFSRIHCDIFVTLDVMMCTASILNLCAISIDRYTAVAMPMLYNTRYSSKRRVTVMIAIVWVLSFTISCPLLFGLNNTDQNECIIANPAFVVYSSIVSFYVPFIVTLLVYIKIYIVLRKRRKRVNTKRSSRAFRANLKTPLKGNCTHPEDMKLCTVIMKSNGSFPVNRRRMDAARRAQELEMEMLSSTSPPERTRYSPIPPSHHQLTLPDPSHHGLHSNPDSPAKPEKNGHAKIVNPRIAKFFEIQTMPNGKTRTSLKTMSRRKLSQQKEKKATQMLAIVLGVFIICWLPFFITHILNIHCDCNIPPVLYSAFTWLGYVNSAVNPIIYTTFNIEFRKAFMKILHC
Chain of D2-A4 mutant receptor (P61169 whole entry I212A/Y213A/I214A/V215A): as the sequence (P61169 whole entry) above, with I212A, Y213A, I214A, V215A counted along it

On to pertussis toxin [PTX], for which the “effect of PTX on activation of ERKs” value in assay [1] and in assay [2] was “greatly decreased” throughout.

Take “Arrestin2: purified bovine arrestin2, non-visual arrestin also termed β-arrestin 1”: the “binding of arrestin2” value in assay [3] (GST pull-down, in words) is listed as “bound weakly”; in assay [4] (GST pull-down, in words) it was “bound weakly”.

The Kd is the free concentration of one partner at which half of the binding sites on the other are occupied at equilibrium, for simple one-to-one binding. A lower Kd goes with tighter binding. For “Arrestin3: purified bovine arrestin3, non-visual arrestin also termed β-arrestin 2”, the “decrease of arrestin binding” value in assay [5] and in assay [6] was “about 60%” each time. For the same molecule, the Bmax is on record as 10.2 ± 0.6 ng in assay [3] (setting [8]) and 10.1 ± 0.6 ng in assay [4] (setting [8]). Moreover, the Kd in assay [3] (setting [9]) is 79 ± 14 nM; in assay [4] (setting [9]) it was 72 ± 14 nM; in assay [4] (summary for D2-like receptor IC3 (D2-IC3 and D3-IC3), GST pull-down), 70 to 80 nM. In addition, the half-time for binding entry in assay [4] (setting [10]) is given as “approximately 2 min”. In addition, in assay [4] (setting [10]), the “time at which binding approached equilibrium” value is no more than 15 min.

B1: GST-D3-IC3 (GST fusion of the third intracellular loop of the rat dopamine D3 receptor, amino acids 210-372) (domain or fragment, UniProt P19020 210-372, looked up)
chain: T1 sequence (P19020 210-372)
B1: binding in assay [7] was put at a Kd of 79 nM.

B2: GST-D2-IC3 (GST fusion of the third intracellular loop of the rat dopamine D2L receptor, amino acids 211-371) (domain or fragment, UniProt P61169 211-371, looked up)
chain: T2 sequence (P61169 211-371)
For B2, the affinity in assay [7], expressed as Kd, was 72 nM.
